{
  "source": "paper PMC8699916",
  "about": "“Synthesis of Human Bone Morphogenetic Protein-2 (hBMP-2) in E. coli Periplasmic Space: Its Characterization and Preclinical Testing” (Cells, 2021)",
  "proteins": {"B1": {"name": "met-hBMP-2 reference preparation from GenScript (natural protein, human)", "chain": "MQAKHKQRKRLKSSCKRHPLYVDFSDVGWNDWIVAPPGYHAFYCHGECPFPLADHLNSTNHAIVQTLVNSVNSKIPKACCVPTELSAISMLYLDENEKVVLKNYQDMVVEGCGCR", "notes": "initial methionine typical of the cytoplasmic product, told in words (met-hBMP-2); human bone morphogenetic protein-2; vendor declares dimeric form (~26 kDa); Commercial product; also called hBMP-2 GenScript; GenScript hBMP-2; source: bought: GenScript (cytoplasmic, E. coli-derived)"}, "B2": {"name": "periplasmic human bone morphogenetic protein-2 (hBMP-2 Biosintesis) (natural protein, UniProt P12643 283-396, looked up)", "chain": "QAKHKQRKRLKSSCKRHPLYVDFSDVGWNDWIVAPPGYHAFYCHGECPFPLADHLNSTNHAIVQTLVNSVNSKIPKACCVPTELSAISMLYLDENEKVVLKNYQDMVVEGCGCR", "notes": "authentic form without the initial methionine; monomer ~13 kDa, dimer ~26 kDa; also called authentic hBMP-2; our hBMP-2; source: E. coli W3110 with pλPL-DsbA-BMP-2, periplasmic fluid extracted by osmotic shock"}},
  "key": {"[1]": {"molecular_target": "the molecule itself", "assay": "non-reducing SDS-PAGE; 15% polyacrylamide gel, non-reducing conditions, Coomassie Brilliant Blue G-250 staining; bought reference preparation"}, "[2]": {"molecular_target": "the molecule itself", "assay": "non-reducing SDS-PAGE with Western blot; 15% gel, non-reducing conditions, semi-dry transfer to nitrocellulose, anti-hBMP-2 rabbit IgG 1:2000; periplasmic fluid of W3110 grown at 30 °C and 42 °C"}},
  "data": [
    {"protein": "B1", "values": [
      {"measurement": "stoichiometry N", "setting": "[1]", "value": 2}
    ]},
    {"protein": "B2", "values": [
      {"measurement": "stoichiometry N", "setting": "[2]", "value": 2}
    ]}
  ]
}
